Source: patent US20090297479A1

Key:
[1] = molecular target: PD-1 on human peripheral blood CD4+ T cells (human) (UniProt Q15116); test: cell-based or functional assay
[2] = molecular target: syndecan-4 (SD-4), human (human) (UniProt P31431); test: cell-based or functional assay
Chain of syndecan-4 (SD-4), human (human) (P31431 19-198): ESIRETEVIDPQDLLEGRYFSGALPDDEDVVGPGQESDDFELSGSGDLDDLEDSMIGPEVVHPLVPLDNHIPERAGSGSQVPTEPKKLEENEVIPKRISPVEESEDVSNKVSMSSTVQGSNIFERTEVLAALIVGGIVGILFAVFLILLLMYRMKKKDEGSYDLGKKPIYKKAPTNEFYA

Chain of PD-1 on human peripheral blood CD4+ T cells (human) (Q15116 25-288): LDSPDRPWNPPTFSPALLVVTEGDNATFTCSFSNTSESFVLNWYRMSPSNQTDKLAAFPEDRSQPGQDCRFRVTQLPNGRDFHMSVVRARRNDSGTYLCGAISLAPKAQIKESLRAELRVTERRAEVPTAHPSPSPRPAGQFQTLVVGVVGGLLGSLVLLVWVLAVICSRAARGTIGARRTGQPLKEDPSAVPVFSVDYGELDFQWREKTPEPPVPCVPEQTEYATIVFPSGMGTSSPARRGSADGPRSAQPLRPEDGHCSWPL
Chain of saporin-conjugated DC-HIL (human DC-HIL-Fc, biotinylated and conjugated with streptavidin-saporin) (Q14956 23-498): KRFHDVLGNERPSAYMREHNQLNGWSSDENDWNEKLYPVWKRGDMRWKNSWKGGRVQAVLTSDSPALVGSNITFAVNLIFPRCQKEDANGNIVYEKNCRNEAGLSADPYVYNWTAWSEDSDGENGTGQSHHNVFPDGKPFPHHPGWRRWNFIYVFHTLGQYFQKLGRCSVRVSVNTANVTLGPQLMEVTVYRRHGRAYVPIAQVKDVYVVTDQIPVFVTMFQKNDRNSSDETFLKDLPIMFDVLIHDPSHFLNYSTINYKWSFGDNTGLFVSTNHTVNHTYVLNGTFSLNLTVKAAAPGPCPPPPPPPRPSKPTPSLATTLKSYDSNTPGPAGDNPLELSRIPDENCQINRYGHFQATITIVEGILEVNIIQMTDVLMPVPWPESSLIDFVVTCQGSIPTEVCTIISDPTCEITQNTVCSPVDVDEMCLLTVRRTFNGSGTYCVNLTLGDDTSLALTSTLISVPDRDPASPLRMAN

**Q.** What does the source list for anti-PD-1 Ab (MIH4) (antibody)?
**A.** inhibition of proliferation induced by 0.3 µg/ml anti-CD3 Ab, Ab at 40 µg/ml [1]: 50 % inhibition; reduction of T cell proliferation at 0.1 µg/ml anti-CD3 Ab [1]: 50%; reduction of T cell proliferation at the highest dose (3 µg/ml) of anti-CD3 Ab [1]: 10%

**Q.** How did the IL-2 production by HUT-78 cells triggered by anti-CD3 Ab [2] turn out when “human DC-HIL-Fc (extracellular domain of human DC-HIL fused to the Fc portion of mouse IgG2a) (from UniProt Q14956 23-498) (Fc fusion)” was run?
**A.** < 70%

**Q.** “saporin-conjugated DC-HIL (human DC-HIL-Fc, biotinylated and conjugated with streptavidin-saporin) (from UniProt Q14956 23-498)” was tested. Which proliferation (3H-thymidine) of HUT-78 cells [2] did it give?
**A.** 60 % reduction
